Assay results: patent publication US20240393333A1

Columns and labels:
[1] = target: human intestinal alkaline phosphatase (human) (UniProt P09923); experiment: immunoblot, serial dilution of human small intestinal lysate; 0.469 µg lysate loaded
[2] = target: human intestinal alkaline phosphatase (human) (UniProt P09923); experiment: immunoblot, serial dilution of human small intestinal lysate; 0.015 µg lysate loaded
[3] = target: human intestinal alkaline phosphatase (human) (UniProt P09923); experiment: immunoblot, serial dilution of human small intestinal lysate; 0.234 µg lysate loaded
[4] = target: human intestinal alkaline phosphatase (human) (UniProt P09923); experiment: immunoblot, serial dilution of human small intestinal lysate; 0.029 µg lysate loaded
[5] = target: human intestinal alkaline phosphatase (human) (UniProt P09923); experiment: immunoblot, serial dilution of human small intestinal lysate; 0.938 µg lysate loaded
[6] = target: human intestinal alkaline phosphatase (human) (UniProt P09923); experiment: immunoblot, serial dilution of human small intestinal lysate; 0.117 µg lysate loaded
[7] = target: human intestinal alkaline phosphatase (human) (UniProt P09923); experiment: immunoblot, serial dilution of human small intestinal lysate; 1.875 µg lysate loaded
[8] = target: human intestinal alkaline phosphatase (human) (UniProt P09923); experiment: immunoblot, serial dilution of human small intestinal lysate; 3.75 µg lysate loaded
[9] = target: human intestinal alkaline phosphatase (human) (UniProt P09923); experiment: immunoblot, serial dilution of human small intestinal lysate; 7.5 µg lysate loaded
[10] = target: human intestinal alkaline phosphatase (human) (UniProt P09923); experiment: immunoblot, serial dilution of human small intestinal lysate; 0.059 µg lysate loaded

UniProt P09923, sequence (P09923 20-503 limits assumed): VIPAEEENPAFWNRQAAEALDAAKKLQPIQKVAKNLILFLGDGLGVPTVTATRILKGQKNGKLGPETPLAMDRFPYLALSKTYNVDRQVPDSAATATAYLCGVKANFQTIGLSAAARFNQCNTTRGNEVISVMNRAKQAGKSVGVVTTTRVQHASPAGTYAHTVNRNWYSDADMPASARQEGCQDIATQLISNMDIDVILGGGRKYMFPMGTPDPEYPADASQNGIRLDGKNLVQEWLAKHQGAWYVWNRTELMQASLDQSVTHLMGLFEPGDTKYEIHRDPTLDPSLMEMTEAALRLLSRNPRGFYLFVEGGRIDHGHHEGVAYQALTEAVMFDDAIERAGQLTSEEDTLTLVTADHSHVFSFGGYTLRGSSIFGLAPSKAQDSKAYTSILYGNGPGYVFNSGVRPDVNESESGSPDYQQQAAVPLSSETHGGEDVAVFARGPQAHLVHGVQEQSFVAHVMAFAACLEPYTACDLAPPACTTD

mean relative fluorescence units for the total iAP (relative fluorescence units) [1]: 75700
mean relative fluorescence units for the total iAP (relative fluorescence units) [2]: 227
mean relative fluorescence units for the total iAP (relative fluorescence units) [3]: 44100
mean relative fluorescence units for the total iAP (relative fluorescence units) [4]: 1160
mean relative fluorescence units for the total iAP (relative fluorescence units) [5]: 143000
mean relative fluorescence units for the total iAP (relative fluorescence units) [6]: 18200
mean relative fluorescence units for the total iAP (relative fluorescence units) [7]: 211000
mean relative fluorescence units for the total iAP (relative fluorescence units) [8]: 234000
mean relative fluorescence units for the total iAP (relative fluorescence units) [9]: 217000
mean relative fluorescence units for the total iAP (relative fluorescence units) [10]: 4920
Substance: primary rabbit polyclonal antibodies against human iAP (Abcam, ab7322) (antibody)
